We go through 5 molecules from patent US20220153832A1 (PIONYR IMMUNOTHERAPEUTICS, published 2022).

In assay [1] the target is T1, N-terminally polyhistidine tagged human MARCO ECD (147-520), recombinant (human, UniProt Q9UEW3 147-520).
T1 construct: also called PI-RG-3000; recombinant human MARCO; not shown: N-terminal polyhistidine tag
T1 sequence: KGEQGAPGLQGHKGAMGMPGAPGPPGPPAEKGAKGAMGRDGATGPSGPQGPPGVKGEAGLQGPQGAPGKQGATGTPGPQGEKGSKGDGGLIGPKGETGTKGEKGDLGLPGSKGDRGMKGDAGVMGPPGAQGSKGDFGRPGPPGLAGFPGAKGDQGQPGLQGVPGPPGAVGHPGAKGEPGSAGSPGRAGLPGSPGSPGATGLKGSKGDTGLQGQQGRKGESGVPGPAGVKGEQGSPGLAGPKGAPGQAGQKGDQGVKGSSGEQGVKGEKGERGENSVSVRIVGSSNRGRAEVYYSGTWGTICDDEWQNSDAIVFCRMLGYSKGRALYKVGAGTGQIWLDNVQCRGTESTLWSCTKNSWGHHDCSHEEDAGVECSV
The assay is described as follows: label-free kinetics (ProbeLife Gator), mAb captured, human MARCO. The procedure:
The kinetics assay used either anti-mouse Fc or anti-human Fc probes to capture the anti-MARCO antibodies onto the probe, and then a five-step kinetic protocol was used to measure the affinity of the antibodies to the antigen, including the following steps: baseline, loading, baseline, association, and dissociation. The kinetics buffer (K buffer) provided by ProbeLife was used to establish the baseline for 60 seconds, and then the anti-mFc or anti-hFc probes were loaded with 200 nM of the antibodies for 120s until the capture reached saturation, measurement of the baseline in K buffer was performed for another 60s, followed by the association step using 200 nM antigen (human MARCO, mouse MARCO or cyno MARCO), and the dissociation step performed in K buffer for 5-10 minutes. The assay was done at 37° C. to maximize antibody:antigen dissociation.
Kinetics and epitope binning analysis of the newly generated anti-human MARCO antibodies was performed as described in Example 3.

The next assay deals with T2, human MSR1 (R&D Systems) (human, UniProt P21757 77-451, limits assumed).
T2 construct: Related scavenger receptor used as specificity control; also called MSRI
T2 sequence (looked up): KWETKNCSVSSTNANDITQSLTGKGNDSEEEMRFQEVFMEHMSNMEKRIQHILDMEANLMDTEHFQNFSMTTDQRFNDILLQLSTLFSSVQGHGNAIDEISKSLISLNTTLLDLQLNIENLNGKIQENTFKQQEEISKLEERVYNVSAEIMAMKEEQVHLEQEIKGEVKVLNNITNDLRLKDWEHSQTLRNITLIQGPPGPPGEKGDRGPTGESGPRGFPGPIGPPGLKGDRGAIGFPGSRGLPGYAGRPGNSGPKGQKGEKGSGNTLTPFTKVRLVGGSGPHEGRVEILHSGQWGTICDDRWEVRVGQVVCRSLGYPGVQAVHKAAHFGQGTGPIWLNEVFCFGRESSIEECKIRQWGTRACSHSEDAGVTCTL
In words: ELISA on MSR1. The essentials: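 Cross-reactivity with human MSR1 (R&D Systems) was tested by ELISA. Maxisorp plates were coated overnight with 0.1 ug/well protein in DPBS with Ca2+ and Mg2+, then blocked with PBS/Ca2+/2% FBS. Hybridoma supernatants were added 1:1 in that buffer for 1 hour at room temperature. Detection used HRP-conjugated anti-rat IgG for 1 hr, then TMB and A450.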

Assay [2] concerns the target T3, Human Macrophage Receptor with Collagenous Structure (MARCO), full length, on cells (human, UniProt Q9UEW3 1-520).
T3 construct: the cell type is named under assay; also called huMARCO; HuMARCO
T3 sequence: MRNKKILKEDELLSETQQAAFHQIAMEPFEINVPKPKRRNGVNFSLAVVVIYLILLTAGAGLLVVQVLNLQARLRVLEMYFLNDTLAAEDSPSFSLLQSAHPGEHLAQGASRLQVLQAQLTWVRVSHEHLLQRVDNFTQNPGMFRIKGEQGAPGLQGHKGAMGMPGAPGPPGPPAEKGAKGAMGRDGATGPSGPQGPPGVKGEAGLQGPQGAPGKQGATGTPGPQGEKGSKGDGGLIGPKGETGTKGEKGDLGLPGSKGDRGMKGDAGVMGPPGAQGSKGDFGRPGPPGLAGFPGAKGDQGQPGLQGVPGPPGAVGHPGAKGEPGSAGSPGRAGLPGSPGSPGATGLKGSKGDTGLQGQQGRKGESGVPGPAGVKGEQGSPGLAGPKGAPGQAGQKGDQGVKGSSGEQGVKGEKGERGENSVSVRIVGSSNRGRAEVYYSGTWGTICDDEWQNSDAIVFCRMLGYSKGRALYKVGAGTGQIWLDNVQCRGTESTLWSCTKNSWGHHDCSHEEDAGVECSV
In words: flow cytometry, 293T (HuMARCO). Here is the method: Supernatants were removed and cell pellets were resuspended in Ca²⁺+ and Mg²⁺+ Dulbecco's phosphate-buffered saline (D-PBS) at 1×10⁶ cells/ml. 100,000 cells/well were plated onto U-bottom 96-well plates for staining and all centrifugation steps were performed at 1500 rpm at 4° C. for 5 min and samples were kept protected from light throughout the protocol. Cells were pelleted and resuspended in 100 μl of Zombie NIR viability dye (BioLegend) prepared by diluting Zombie NIR dimethyl sulfoxide (DMSO) stock 1000-fold in D-PBS. […] Flow cytometry data were analyzed using FlowJo software (version 10.6.1) and data were processed and further analyzed in Microsoft Excel and GraphPad Prism software (version 8). Half-maximal effective concentrations (EC₅₀) were calculated based on geometric mean fluorescence intensities (gMFI). In case when the plates were not able to be analyzed on the cytometer, cells were pelleted after the washes and fixed in 100 μl of 2% paraformaldehyde (PFA), prepared by diluting the 16% (w/v) stock (Thermo Fisher) in DPBS, for 15 min at RT. […]

In assay [3] the target is T3, Human Macrophage Receptor with …. The assay is described as follows: flow cytometry, cells overexpressing human MARCO.

Positions count from the first letter of the chain named.

B1: PI-HX-3031 (antibody)
heavy: QVQLKESGPGLVQPSQTLSLTCTVSGFSLTSYHVSWVRQPPGKGLEWMGAIWTGGSIAYNSLLKSRLSISRDTSKSQVFLKMNSLQTEDTATYYCARDLSDYYSSYTSFDYWGQGVMVTVSTAETTAPSVYPLAPGTALKSNSMVTLGCLVKGYFPEPVTVTWNSGALSSGVHTFPAVLQSGLYTLTSSVTVPSSTWSSQAVTCNVAHPASSTKVDKKIVPRECNPCGCTGSEVSSVFIFPPKTKDVLTITLTPKVTCVVVDISQNDPEVRFSWFIDDVEVHTAQTHAPEKQSNSTLRSVSELPIVHRDWLNGKTFKCKVNSGAFPAPIEKSISKPEGTPRGPQVYTMAPPKEEMTQSQVSITCMVKGFYPPDIYTEWKMNGQPQENYKNTPPTMDTDGSYFLYSKLNVKKETWQQGNTFTCSVLHEGLHNHHTEKSLSHSP
light: DIQMTQSPASLSTSLGETVSIECLASEGISNDLAWYQQKSGKSPQLLIYAASRLQDGVPSRFSGSGSGTRYSLKISGMQPEDEADYFCQQSYKYPLTFGSGTKLEIKRADAAPTVSIFPPSTEQLATGGASVVCLMNNFYPRDISVKWKIDGTERRDGVLDSVTDQDSKDSTYSMSSTLSLTKADYESHNLYTCEVVHKTSSSPVVKSFNRNEC
notes: Parental rat hybridoma, rat IgG2a
With B1, in assay [1], the koff amounted to 0.000798 s⁻¹ and the kon came out at 443000 M⁻¹ s⁻¹. Moreover, in the assay with human MSR1 (R&D Systems), the binding result is listed as “no binding”. Further, in assay [2], the concentration for a half-maximal effect (EC50) came to 0.56 nM.

B2: PI-HX-3043 (antibody, rat IgG2a)
heavy: QVNLLQSRAALVKPGASVKLSCKASGYTFTDYYLHWVKQSHAKSLEWIGYINPNNAYTSYNEKFKSKATLTVDKSTNTAYMELSRLTSADSATYYCARDTTDYYNLHFAYWGQGTLVTVSSAETTAPSVYPLAPGTALKSNSMVTLGCLVKGYFPEPVTVTWNSGALSSGVHTFPAVLQSGLYTLTSSVTVPSSTWSSQAVTCNVAHPASSTKVDKKIVPRECNPCGCTGSEVSSVFIFPPKTKDVLTITLTPKVTCVVVDISQNDPEVRFSWFIDDVEVHTAQTHAPEKQSNSTLRSVSELPIVHRDWLNGKTFKCKVNSGAFPAPIEKSISKPEGTPRGPQVYTMAPPKEEMTQSQVSITCMVKGFYPPDIYTEWKMNGQPQENYKNTPPTMDTDGSYFLYSKLNVKKETWQQGNTFTCSVLHEGLHNHHTEKSLSHSP
light: B1 light with T13A, A25T, A50D, Q55E, P80T
notes: as for B1
B2: in assay [1], the koff came to 0.000849 s⁻¹ and the on-rate constant (kon) is 233000 M⁻¹ s⁻¹.

B3: PI-HX-3061 (antibody, rat IgG2a)
heavy: EVQLVESGGGLVQPGSSLKLSCVASKFTFSNYGMNWIRQAPKKGLEWIALIYYNSNNKYYADSVKGRFTISRDNSKNTLYLEMNSLRSEDTAMYYCAKSLTGGSDYFDSWGQGVMVTVSSAETTAPSVYPLAPGTALKSNSMVTLGCLVKGYFPEPVTVTWNSGALSSGVHTFPAVLQSGLYTLTSSVTVPSSTWPSQTVTCNVAHPASSTKVDKKIVPRNCGGDCKPCICTGSEVSSVFIFPPKPKDVLTITLTPKVTCVVVDISQDDPEVHFSWFVDDVEVHTAQTRPPEEQFNSTFRSVSELPILHQDWLNGRTFRCKVTSAAFPSPIEKTISKPEGRTQVPHVYTMSPTKEEMTQNEVSITCMVKGFYPPDIYVEWQMNGQPQENYKNTPPTMDTDGSYFLYSKLNVKKEKWQQGNTFTCSVLHEGLHNHHTEKSLSHSP
light: DVQMTQSPSYLAASPGESVSISCKASKSIGTFLAWYQEKPEKTNKLLIYSGSTLQSGTPSRFSGSGSGTDFTLTIRNLEPEDFAVYYCQQHDEYPFTFGSGTKLEIKRADAAPTVSIFPPSTEQLATGGASVVCLMNNFYPRDISVKWKIDGTERRDGVLDSVTDQDSKDSTYSMSSTLSLTKADYESHNLYTCEVVHKTSSSPVVKSFNRNEC
notes: Parental rat hybridoma, rat IgG2a; cross reactive with human and mouse MARCO
As to B3, in the assay with human MSR1 (R&D Systems), the binding result is reported as “no binding”. Besides, the EC50 in assay [2] turned out to be 0.49 nM.

B4: PI-3010-AB (antibody, human IgG1, kappa)
heavy: not shown
light: DIQMTQSPASLSTSLGETVSIECLASEGISNDLAWYQQKSGKSPQLLIYAASRLQDGVPSRFSGSGSGTRYSLKISGMQPEDEADYFCQQSYKYPLTFGSGTKLEIKRTVAAPSVFIFPPSDEQLKSGTASVVCLLNNFYPREAKVQWKVDNALQSGNSQESVTEQDSKDSTYSLSSTLTLSKADYEKHKVYACEVTHQGLSSPVTKSFNRGEC
Turning to B4, the EC50 in assay [3] is 0.68 nM.

B5: PI-3015-AB (antibody, human IgG1, kappa)
heavy: not shown
light: DIQMTQSPSSLSASVGDRVTITCRASEGISNDLAWYQQKPGKAPKLLIYAASRLQSGVPSRFSGSGSGTDYTLTISSMQPEDFATYYCQQSYKYPLTFGQGTKLEIKRTVAAPSVFIFPPSDEQLKSGTASVVCLLNNFYPREAKVQWKVDNALQSGNSQESVTEQDSKDSTYSLSSTLTLSKADYEKHKVYACEVTHQGLSSPVTKSFNRGEC
For B5, a half-maximal response in assay [3] (EC50) required 0.86 nM.
